# Test results: patent US20140271699A1 (US Dept. of Health and Human Services, published 2014)
# B1: AM22 antibody (antibody, V domains shown)
# VH: QVQLVQSGAEVKKPGATVKVSCKISGHTLIKLSIHWVRQAPGKGLEWMGGYEGEVDEIFYAQKFQHRLTVIADTATDTVYMELGRLTSDDTAVYFCGTLGVTVTEAGLGIDDYWGQGTLVTVSS
# VL: EIVLTQSPGTLSLSPGERATLSCRASQIVSRNHLAWYQQKPGQAPRLLIFGASSRATGIPVRFSGSGSGTDFTLTINGLAPEDFAVYYCLSSDSSIFTFGPGTKVDFKR
# Biological target: RSV F glycoprotein as expressed by RSV (on RSV-infected HEp-2 cells / on virus) (RSV (strain  for this assay), UniProt P03420 26-109; P03420 137-574)
# Sequence (P03420 26-109, chain 1 of 2): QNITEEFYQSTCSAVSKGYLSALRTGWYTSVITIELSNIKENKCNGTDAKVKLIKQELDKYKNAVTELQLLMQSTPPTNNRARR
# Sequence (P03420 137-574, chain 2 of 2): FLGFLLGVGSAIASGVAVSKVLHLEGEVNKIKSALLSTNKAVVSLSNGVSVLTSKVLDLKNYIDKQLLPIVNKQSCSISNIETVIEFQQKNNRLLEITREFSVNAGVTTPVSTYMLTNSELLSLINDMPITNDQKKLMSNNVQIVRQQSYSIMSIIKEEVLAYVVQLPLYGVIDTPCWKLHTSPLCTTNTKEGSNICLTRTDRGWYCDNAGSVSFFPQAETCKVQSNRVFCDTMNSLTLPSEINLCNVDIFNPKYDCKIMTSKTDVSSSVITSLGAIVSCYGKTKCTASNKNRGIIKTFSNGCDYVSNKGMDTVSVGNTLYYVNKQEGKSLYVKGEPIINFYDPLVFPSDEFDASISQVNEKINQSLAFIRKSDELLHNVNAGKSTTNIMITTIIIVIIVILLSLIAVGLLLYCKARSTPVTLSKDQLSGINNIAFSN
# Experiment: cell-based or functional assay
binder,measurement,value
B1,"RSV neutralization (flow cytometry, RSV-GFP on HEp-2 cells), potency relative to palivizumab",~50 fold
